Where a chain is given by its changes, count along the chain named. Names and notes keep the numbering of the source. One block for each binder: values may come before it.
Tests used:
[1] = target: binding partner (antigen) of C5A (XPA23); assay: Biacore, K-off, fold vs original
[2] = target: binding partner of C5A (XPA23); assay: Biacore

fold difference in affinity vs original [1]: 0.87 fold | fold affinity vs original [2]: 0.87 fold
B2: C5A (XPA23) VH S54F (antibody, V domains shown)
VH: EVQLLESGGGLVQPGGSLRLSCAASGFTFSKYFMFWVRQAPGKGLEWVSVISPFGGMTRYADSVKGRFTISRDNSKNTLYLQMNSLRAEDTAVYYCARVGYGGNSDYWGQGTLVTVSS
VL: DIQMTQSPSSVSASVGDRLTIICRASQDINRWLAWYQQTPGNAPKLLIHSATSLQSGVPSRFSGSGSGTDFTLTINSLQPEDFATYYCQQADSFPLTFGGGTKVEIK

fold difference in affinity vs original [1]: 1.81 fold | fold difference in affinity vs original [2]: 1.81 fold
B3: C5A (XPA23) VH T58P (antibody, V domains shown)
VH: B2 VH with F54S, T58P
VL: B2 VL

fold difference in affinity vs original [1]: 0.95 fold | fold difference in affinity vs original [2]: 0.95 fold
B4: C5A (XPA23) VH T58I (antibody, V domains shown)
VH: B2 VH with F54S, T58I
VL: B2 VL

fold difference in affinity vs original [1]: 0.14 fold | fold difference in affinity vs original [2]: 0.14 fold
B5: C5A (XPA23) VH T58A (antibody, V domains shown)
VH: B2 VH with F54S, T58A
VL: B2 VL

fold difference in affinity vs original [1]: 0.03 fold | fold difference in affinity vs original [2]: 0.03 fold
B8: C5A (XPA23) VH V99A (antibody, V domains shown)
VH: B2 VH with F54S, V99A
VL: B2 VL

fold difference in affinity vs original [1]: 0.06 fold | fold difference in affinity vs original [2]: 0.06 fold
B10: C5A (XPA23) VH S54P (antibody, V domains shown)
VH: B2 VH with F54P
VL: B2 VL

fold difference in affinity vs original [1]: 0.99 fold | fold difference in affinity vs original [2]: 0.99 fold
B15: C5A (XPA23) VH T58V (antibody, V domains shown)
VH: B2 VH with F54S, T58V
VL: B2 VL

fold difference in affinity vs original [1]: 1 fold | fold difference in affinity vs original [2]: 1 fold
B16: C5A (XPA23) VH S54V (antibody, V domains shown)
VH: B2 VH with F54V
VL: B2 VL

fold difference in affinity vs original [1]: 0.95 fold | fold difference in affinity vs original [2]: 0.95 fold
B17: C5A (XPA23) VH T58G (antibody, V domains shown)
VH: B2 VH with F54S, T58G
VL: B2 VL

fold difference in affinity vs original [1]: 0.95 fold | fold difference in affinity vs original [2]: 0.95 fold
B18: C5A (XPA23) VH T58L (antibody, V domains shown)
VH: B2 VH with F54S, T58L
VL: B2 VL

fold difference in affinity vs original [1]: 1.43 fold | fold difference in affinity vs original [2]: 1.43 fold
B20: C5A (XPA23) VH S54G (antibody, V domains shown)
VH: B2 VH with F54G
VL: B2 VL

fold difference in affinity vs original [1]: 0.91 fold | fold difference in affinity vs original [2]: 0.91 fold
B21: C5A (XPA23) VH S54L (antibody, V domains shown)
VH: B2 VH with F54L
VL: B2 VL

fold difference in affinity vs original [1]: 0.86 fold | fold difference in affinity vs original [2]: 0.86 fold
B24: C5A (XPA23) VH S54I (antibody, V domains shown)
VH: B2 VH with F54I
VL: B2 VL

fold difference in affinity vs original [1]: 1.04 fold | fold affinity vs original [2]: 1.04 fold
B26: C5A (XPA23) VH T58F (antibody, V domains shown)
VH: B2 VH with F54S, T58F
VL: B2 VL

fold difference in affinity vs original [1]: 0.93 fold | fold affinity vs original [2]: 0.93 fold
B27: C5A (XPA23) VH T58W (antibody, V domains shown)
VH: B2 VH with F54S, T58W
VL: B2 VL

fold difference in affinity vs original [1]: 1.07 fold | fold affinity vs original [2]: 1.07 fold
B37: C5A (XPA23) VH S54W (antibody, V domains shown)
VH: B2 VH with F54W
VL: B2 VL

Continued, binder first:

B1: C5A (XPA23) VH P53I (antibody, V domains shown)
VH: B2 VH with P53I, F54S
VL: B2 VL
fold difference in affinity vs original [1]: 0.08 fold | fold difference in affinity vs original [2]: 0.08 fold

B6: C5A (XPA23) VH R59F (antibody, V domains shown)
VH: B2 VH with F54S, R59F
VL: B2 VL
fold difference in affinity vs original [1]: 0.92 fold | fold affinity vs original [2]: 0.92 fold

B7: C5A (XPA23) VH G56I (antibody, V domains shown)
VH: B2 VH with F54S, G56I
VL: B2 VL
fold difference in affinity vs original [1]: 1.71 fold | fold difference in affinity vs original [2]: 1.71 fold

B9: C5A (XPA23) VH G56L (antibody, V domains shown)
VH: B2 VH with F54S, G56L
VL: B2 VL
fold difference in affinity vs original [1]: 1.41 fold | fold difference in affinity vs original [2]: 1.41 fold

B11: C5A (XPA23) VH S54A (antibody, V domains shown)
VH: B2 VH with F54A
VL: B2 VL
fold difference in affinity vs original [1]: 1 fold | fold difference in affinity vs original [2]: 1 fold

B12: C5A (XPA23) VH P53L (antibody, V domains shown)
VH: B2 VH with P53L, F54S
VL: B2 VL
fold difference in affinity vs original [1]: 0.04 fold | fold difference in affinity vs original [2]: 0.04 fold

B13: C5A (XPA23) VH P53F (antibody, V domains shown)
VH: B2 VH with P53F, F54S
VL: B2 VL
fold difference in affinity vs original [1]: 0.05 fold | fold affinity vs original [2]: 0.05 fold

B14: C5A (XPA23) VH R59L (antibody, V domains shown)
VH: B2 VH with F54S, R59L
VL: B2 VL
fold difference in affinity vs original [1]: 0.08 fold | fold difference in affinity vs original [2]: 0.08 fold

B19: C5A (XPA23) VH M57V (antibody, V domains shown)
VH: B2 VH with F54S, M57V
VL: B2 VL
fold difference in affinity vs original [1]: 0.03 fold | fold difference in affinity vs original [2]: 0.03 fold

B22: C5A (XPA23) VH G56F (antibody, V domains shown)
VH: B2 VH with F54S, G56F
VL: B2 VL
fold difference in affinity vs original [1]: 1.41 fold | fold affinity vs original [2]: 1.41 fold

B23: C5A (XPA23) VH G56P (antibody, V domains shown)
VH: B2 VH with F54S, G56P
VL: B2 VL
fold difference in affinity vs original [1]: 0.85 fold | fold difference in affinity vs original [2]: 0.85 fold

B25: C5A (XPA23) VH G55L (antibody, V domains shown)
VH: B2 VH with F54S, G55L
VL: B2 VL
fold difference in affinity vs original [1]: 0.08 fold | fold difference in affinity vs original [2]: 0.08 fold

B28: C5A (XPA23) VH R59W (antibody, V domains shown)
VH: B2 VH with F54S, R59W
VL: B2 VL
fold difference in affinity vs original [1]: 0.09 fold | fold affinity vs original [2]: 0.09 fold

B29: C5A (XPA23) VH G56W (antibody, V domains shown)
VH: B2 VH with F54S, G56W
VL: B2 VL
fold difference in affinity vs original [1]: 1.51 fold | fold affinity vs original [2]: 1.51 fold

B30: C5A (XPA23) VH G56A (antibody, V domains shown)
VH: B2 VH with F54S, G56A
VL: B2 VL
fold difference in affinity vs original [1]: 1.21 fold | fold difference in affinity vs original [2]: 1.21 fold

B31: C5A (XPA23) VH M57L (antibody, V domains shown)
VH: B2 VH with F54S, M57L
VL: B2 VL
fold difference in affinity vs original [1]: 0.06 fold | fold difference in affinity vs original [2]: 0.06 fold

B32: C5A (XPA23) VH M57F (antibody, V domains shown)
VH: B2 VH with F54S, M57F
VL: B2 VL
fold difference in affinity vs original [1]: 1.03 fold | fold affinity vs original [2]: 1.03 fold

B33: C5A (XPA23) VH M57A (antibody, V domains shown)
VH: B2 VH with F54S, M57A
VL: B2 VL
fold difference in affinity vs original [1]: 0.03 fold | fold difference in affinity vs original [2]: 0.03 fold

B34: C5A (XPA23) VH P53W (antibody, V domains shown)
VH: B2 VH with P53W, F54S
VL: B2 VL
fold difference in affinity vs original [1]: 0.05 fold | fold affinity vs original [2]: 0.05 fold

B35: C5A (XPA23) VH R59G (antibody, V domains shown)
VH: B2 VH with F54S, R59G
VL: B2 VL
fold difference in affinity vs original [1]: 1.04 fold | fold difference in affinity vs original [2]: 1.04 fold

B36: C5A (XPA23) VH R59P (antibody, V domains shown)
VH: B2 VH with F54S, R59P
VL: B2 VL
fold difference in affinity vs original [1]: 0.07 fold | fold difference in affinity vs original [2]: 0.07 fold

B38: C5A (XPA23) VH M57I (antibody, V domains shown)
VH: B2 VH with F54S, M57I
VL: B2 VL
fold difference in affinity vs original [1]: 0.03 fold | fold difference in affinity vs original [2]: 0.03 fold

B39: C5A (XPA23) VH G55I (antibody, V domains shown)
VH: B2 VH with F54S, G55I
VL: B2 VL
fold difference in affinity vs original [1]: 0.86 fold | fold difference in affinity vs original [2]: 0.86 fold

Source: patent US20110118447A1
